# B1: modified Widom 601 with SOX11 site, free DNA (dsDNA)
# DNA 1: CTGGAGAATCCCGGTCTGCAGGCCGCTCAATTGGTCGTAGACAGCTCTAGCACCGCTTAAACGCACGTACGGTATTGTTTATTTTGTTCCTCCGCCAAGGGGATTACTCCCTAGTCTCCAGGCACGTGTCAGATATATACATCCTGT
# DNA 2: ACAGGATGTATATATCTGACACGTGCCTGGAGACTAGGGAGTAATCCCCTTGGCGGAGGAACAAAATAAACAATACCGTACGTGCGTTTAAGCGGTGCTAGAGCTGTCTACGACCAATTGAGCGGCCTGCAGACCGGGATTCTCCAG
# Molecular target: SOX11 (UniProt P35716 34-132)
# Experiment: EMSA
# Chain of SOX11 (P35716 34-132): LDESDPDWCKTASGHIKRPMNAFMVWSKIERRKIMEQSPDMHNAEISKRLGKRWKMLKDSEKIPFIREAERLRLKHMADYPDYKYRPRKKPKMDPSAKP
binder,measurement,value
B1,binding result,binds

# From paper PMC6173309
